This note sets out measurements from paper PMC8214733.

Holding throughout (assay): BRET assay (LuTHy system)
For orientation: BRET reads energy transfer from a luciferase to a nearby fluorophore.

The target of experiment [1] is C-terminal portion of DYNC1H1 (1000 AA) fused to a proteinA-mCitrine tag (UniProt Q14204). The following applies: parent: est. 0.52; read off a plot.
Experiment [2] deals with sperm associated antigen 6 (SPAG6), full CDS fused to a proteinA-mCitrine tag (UniProt O75602). The following applies: parent: est. 0.41; read off a plot.
The target in experiment [3] is T1, sperm associated antigen 6 (SPAG6), full CDS fused to a proteinA-mCitrine tag, O75602.
T1 chain: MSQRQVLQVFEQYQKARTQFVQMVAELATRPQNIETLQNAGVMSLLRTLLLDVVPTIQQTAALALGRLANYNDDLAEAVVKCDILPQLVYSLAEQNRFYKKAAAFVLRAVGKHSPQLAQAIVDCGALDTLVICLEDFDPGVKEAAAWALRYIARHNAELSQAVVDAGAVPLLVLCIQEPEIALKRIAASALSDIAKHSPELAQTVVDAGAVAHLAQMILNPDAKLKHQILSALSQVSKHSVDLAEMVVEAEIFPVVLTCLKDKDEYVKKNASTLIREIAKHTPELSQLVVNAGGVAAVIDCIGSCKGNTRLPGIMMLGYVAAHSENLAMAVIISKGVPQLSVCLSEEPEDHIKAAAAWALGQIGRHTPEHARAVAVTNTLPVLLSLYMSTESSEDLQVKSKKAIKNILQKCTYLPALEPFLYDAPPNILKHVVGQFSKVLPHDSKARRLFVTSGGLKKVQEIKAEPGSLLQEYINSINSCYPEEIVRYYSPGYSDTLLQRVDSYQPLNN
The settings on record: chain shown with the change;; parent: est. 0.41; read off a plot.

The target of experiment [4] is C-terminal portion of DYNC1H1 (1000 AA) fused to a proteinA-mCitrine tag, Q14204. The settings on record: chain shown with the change;; parent: est. 0.52; read off a plot.
C-terminal portion of DYNC1H1 (1000 AA) fused to a proteinA-mCitrine tag, Q14204, sequence (Q14204 whole entry, the tested form may be a part): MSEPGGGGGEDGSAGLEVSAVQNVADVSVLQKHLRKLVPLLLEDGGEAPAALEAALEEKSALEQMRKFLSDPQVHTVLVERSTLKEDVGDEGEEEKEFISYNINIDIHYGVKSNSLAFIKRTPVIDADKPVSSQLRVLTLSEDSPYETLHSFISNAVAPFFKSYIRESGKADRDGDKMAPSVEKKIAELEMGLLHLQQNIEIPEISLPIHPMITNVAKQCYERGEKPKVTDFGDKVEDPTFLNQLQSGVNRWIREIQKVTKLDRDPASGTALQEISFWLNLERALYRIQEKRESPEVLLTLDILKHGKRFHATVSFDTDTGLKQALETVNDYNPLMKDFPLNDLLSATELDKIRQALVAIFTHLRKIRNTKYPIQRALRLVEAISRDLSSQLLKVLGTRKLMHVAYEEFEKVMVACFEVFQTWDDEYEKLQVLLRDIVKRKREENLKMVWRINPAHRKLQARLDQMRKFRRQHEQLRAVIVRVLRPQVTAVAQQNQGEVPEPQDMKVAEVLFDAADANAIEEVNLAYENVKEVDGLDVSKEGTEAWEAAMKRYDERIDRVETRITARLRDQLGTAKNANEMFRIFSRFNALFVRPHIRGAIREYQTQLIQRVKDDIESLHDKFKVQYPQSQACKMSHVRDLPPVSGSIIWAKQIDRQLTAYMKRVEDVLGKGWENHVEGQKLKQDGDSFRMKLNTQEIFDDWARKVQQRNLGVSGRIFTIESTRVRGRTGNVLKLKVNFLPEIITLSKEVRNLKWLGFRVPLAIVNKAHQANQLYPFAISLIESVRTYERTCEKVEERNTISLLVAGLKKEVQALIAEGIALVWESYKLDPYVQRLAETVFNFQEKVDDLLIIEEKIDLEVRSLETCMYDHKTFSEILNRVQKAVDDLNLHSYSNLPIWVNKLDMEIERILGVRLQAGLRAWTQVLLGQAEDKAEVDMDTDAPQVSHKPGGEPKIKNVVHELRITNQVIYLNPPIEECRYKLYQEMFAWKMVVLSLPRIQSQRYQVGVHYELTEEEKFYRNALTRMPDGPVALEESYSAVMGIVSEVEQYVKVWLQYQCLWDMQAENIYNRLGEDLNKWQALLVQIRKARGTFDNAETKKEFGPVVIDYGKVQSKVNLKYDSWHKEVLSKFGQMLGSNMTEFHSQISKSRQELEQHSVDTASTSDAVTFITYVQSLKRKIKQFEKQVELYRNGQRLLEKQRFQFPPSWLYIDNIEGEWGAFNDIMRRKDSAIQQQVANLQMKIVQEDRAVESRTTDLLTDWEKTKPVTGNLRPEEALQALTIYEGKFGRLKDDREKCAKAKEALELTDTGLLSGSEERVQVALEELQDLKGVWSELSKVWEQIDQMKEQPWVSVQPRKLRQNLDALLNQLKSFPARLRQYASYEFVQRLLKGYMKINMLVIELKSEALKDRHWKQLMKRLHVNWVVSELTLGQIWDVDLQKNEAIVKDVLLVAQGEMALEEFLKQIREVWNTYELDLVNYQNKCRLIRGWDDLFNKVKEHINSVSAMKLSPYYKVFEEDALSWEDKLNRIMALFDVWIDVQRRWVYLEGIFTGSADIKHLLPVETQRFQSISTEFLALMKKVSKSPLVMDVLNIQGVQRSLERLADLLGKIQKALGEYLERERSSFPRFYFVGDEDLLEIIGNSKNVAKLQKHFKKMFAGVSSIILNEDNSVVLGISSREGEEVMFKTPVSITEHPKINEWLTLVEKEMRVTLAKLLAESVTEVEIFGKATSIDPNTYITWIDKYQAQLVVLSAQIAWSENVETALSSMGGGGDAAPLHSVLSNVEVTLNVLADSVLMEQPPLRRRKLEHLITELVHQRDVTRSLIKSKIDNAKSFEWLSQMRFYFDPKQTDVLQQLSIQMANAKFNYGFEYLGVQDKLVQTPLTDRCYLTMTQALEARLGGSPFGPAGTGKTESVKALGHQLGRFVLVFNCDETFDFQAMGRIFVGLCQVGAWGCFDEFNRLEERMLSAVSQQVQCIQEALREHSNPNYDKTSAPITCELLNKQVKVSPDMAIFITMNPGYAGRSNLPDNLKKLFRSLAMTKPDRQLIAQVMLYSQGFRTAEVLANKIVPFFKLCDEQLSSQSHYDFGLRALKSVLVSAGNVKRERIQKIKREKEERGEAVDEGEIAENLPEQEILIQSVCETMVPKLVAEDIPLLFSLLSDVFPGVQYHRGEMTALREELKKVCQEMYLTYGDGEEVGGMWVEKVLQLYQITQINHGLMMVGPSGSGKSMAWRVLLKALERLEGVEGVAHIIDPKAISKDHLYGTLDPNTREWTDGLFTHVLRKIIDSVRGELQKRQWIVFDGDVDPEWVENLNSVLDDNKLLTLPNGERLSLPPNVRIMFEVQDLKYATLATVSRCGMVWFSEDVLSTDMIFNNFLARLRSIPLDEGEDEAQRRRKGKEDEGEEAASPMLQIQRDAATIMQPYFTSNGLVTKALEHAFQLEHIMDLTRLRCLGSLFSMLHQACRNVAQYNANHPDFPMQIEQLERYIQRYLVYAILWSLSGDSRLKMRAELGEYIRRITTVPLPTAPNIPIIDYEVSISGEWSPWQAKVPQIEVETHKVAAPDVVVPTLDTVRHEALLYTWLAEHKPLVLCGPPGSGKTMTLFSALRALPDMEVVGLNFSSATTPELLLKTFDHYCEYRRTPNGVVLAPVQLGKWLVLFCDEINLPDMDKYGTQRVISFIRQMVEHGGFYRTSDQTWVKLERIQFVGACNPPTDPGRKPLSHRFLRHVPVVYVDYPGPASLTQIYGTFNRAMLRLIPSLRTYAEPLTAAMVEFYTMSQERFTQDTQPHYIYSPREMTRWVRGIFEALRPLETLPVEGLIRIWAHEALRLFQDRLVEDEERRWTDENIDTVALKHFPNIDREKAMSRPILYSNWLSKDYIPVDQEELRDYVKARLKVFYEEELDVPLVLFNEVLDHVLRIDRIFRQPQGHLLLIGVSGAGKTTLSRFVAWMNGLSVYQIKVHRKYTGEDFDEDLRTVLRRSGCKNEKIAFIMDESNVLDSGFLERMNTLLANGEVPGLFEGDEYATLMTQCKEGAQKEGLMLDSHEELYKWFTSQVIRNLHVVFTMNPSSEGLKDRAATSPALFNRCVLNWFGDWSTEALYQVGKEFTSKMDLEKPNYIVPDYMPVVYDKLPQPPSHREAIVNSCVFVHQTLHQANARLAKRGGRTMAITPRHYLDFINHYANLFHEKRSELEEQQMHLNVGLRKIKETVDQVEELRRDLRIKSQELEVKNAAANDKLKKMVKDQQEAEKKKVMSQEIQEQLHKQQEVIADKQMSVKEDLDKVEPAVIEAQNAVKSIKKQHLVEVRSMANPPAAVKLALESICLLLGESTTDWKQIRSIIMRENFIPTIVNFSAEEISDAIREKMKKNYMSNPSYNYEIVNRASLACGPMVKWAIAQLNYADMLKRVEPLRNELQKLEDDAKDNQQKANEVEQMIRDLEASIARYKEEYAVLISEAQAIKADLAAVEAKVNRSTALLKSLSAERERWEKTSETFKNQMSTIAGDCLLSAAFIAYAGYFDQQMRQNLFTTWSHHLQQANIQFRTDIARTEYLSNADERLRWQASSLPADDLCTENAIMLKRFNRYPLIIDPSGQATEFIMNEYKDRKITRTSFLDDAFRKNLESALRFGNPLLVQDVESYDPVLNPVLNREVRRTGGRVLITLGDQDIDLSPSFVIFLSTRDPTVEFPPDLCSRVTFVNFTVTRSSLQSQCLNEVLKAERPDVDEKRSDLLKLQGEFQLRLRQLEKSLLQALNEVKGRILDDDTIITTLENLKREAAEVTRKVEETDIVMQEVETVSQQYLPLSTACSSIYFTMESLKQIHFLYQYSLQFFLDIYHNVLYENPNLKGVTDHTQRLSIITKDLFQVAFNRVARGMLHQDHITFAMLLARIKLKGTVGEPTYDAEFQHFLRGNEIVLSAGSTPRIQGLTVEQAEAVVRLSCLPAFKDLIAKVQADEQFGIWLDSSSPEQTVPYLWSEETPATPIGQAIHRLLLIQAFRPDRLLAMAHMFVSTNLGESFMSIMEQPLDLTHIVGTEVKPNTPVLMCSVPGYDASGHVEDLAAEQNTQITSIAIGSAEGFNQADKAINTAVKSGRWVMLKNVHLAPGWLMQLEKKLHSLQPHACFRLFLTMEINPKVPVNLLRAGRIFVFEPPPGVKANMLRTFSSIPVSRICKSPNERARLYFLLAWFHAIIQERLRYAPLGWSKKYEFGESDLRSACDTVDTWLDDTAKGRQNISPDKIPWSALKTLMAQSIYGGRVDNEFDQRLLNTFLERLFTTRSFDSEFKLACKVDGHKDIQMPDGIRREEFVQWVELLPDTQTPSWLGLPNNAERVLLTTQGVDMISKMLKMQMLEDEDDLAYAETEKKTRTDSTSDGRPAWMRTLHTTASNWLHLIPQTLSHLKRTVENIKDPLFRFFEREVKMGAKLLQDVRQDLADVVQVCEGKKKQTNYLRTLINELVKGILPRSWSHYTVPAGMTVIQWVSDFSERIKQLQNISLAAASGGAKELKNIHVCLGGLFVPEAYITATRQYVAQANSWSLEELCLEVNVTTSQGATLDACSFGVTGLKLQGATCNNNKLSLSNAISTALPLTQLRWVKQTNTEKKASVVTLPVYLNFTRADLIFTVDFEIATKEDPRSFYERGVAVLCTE

Consider “coiled-coil domain-containing protein 103 (CCDC103), full-length coding sequence fused to a Nano-luciferase (NL)-Myc tag (from UniProt Q8IW40) p.Ala11Pro”, for which the response came to 0.55 in experiment [1] and 0.33 in experiment [2].

B1: coiled-coil domain-containing protein 103 (CCDC103), full-length coding sequence fused to a Nano-luciferase (NL)-Myc tag, Q8IW40 p.His154Pro (protein)
chain: MERNDIINFKALEKELQAALTADEKYKRENAAKLRAVEQRVASYEEFRGIVLASHLKPLERKDKMGGKRTVPWNCHTIQGRTFQDVATEISPEKAPLQPETSADFYRDWRRHLPSGPERYQALLQLGGPRLGCLFQTDVGFGLLGELLVALADPVGPADRAAVLGILCSLASTGRFTLNLSLLSRAERESCKGLFQKLQAMGNPRSVKEGLSWEEQGLEEQSGGLQEEERLLQELLELYQVD
As to B1, the response in experiment [3] is 0.22; in experiment [4], 0.38.
